Where two headings read alike, the source gives them in different places.
Assays:
[1] = target: CBL47–435 pY371 (human) (UniProt P22681)
[2] = target: GST-CBL47–435 WT (human) (UniProt P22681); assay: SPR
[3] = target: GST-CBL47–435 Y368F pY371 (human) (UniProt P22681); assay: SPR
[4] = target: GST-CBL47–435 M222E (human) (UniProt P22681); assay: SPR
[5] = target: GST-CBL47–435 Y368F (human) (UniProt P22681); assay: SPR
[6] = target: GST-CBL47–435 Y371F (human) (UniProt P22681); assay: SPR
[7] = target: GST-CBL47–435 WT (human) (UniProt P22681); assay: SPR; remark: listed apart in the source

Chain of UbcH5B (from UniProt P62837 1-147) (enzyme; other documents disagree on this pair) (P62837 whole entry): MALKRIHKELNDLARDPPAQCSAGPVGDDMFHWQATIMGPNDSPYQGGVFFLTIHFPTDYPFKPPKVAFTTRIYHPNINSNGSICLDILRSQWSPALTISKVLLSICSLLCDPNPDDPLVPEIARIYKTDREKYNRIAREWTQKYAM
Chain of GST-CBL47–435 WT (human) (P22681 47-435): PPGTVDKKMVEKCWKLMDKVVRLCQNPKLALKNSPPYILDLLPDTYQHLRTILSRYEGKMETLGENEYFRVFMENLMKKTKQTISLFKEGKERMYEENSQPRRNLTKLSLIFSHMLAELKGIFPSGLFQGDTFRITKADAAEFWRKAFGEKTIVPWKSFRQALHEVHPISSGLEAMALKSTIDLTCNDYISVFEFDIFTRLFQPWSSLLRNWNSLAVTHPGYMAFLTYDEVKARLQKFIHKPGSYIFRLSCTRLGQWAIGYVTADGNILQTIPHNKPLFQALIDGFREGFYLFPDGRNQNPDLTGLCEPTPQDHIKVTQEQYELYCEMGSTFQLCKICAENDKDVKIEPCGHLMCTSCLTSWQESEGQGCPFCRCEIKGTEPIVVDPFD
Chain of GST-CBL47–435 Y368F pY371 (human) (P22681 47-435 Y368F): as the sequence (P22681 47-435) above, with Y322F counted along it
Chain of GST-CBL47–435 Y368F (human) (P22681 47-435 Y368F): as the sequence (P22681 47-435) above, with Y322F counted along it
Chain of GST-CBL47–435 M222E (human) (P22681 47-435 M222E): as the sequence (P22681 47-435) above, with M176E counted along it
Chain of UbcH5B (from UniProt P62837 1-147) (enzyme) (P62837 whole entry): as the sequence (P62837 whole entry) above
Chain of GST-CBL47–435 Y371F (human) (P22681 47-435 Y371F): as the sequence (P22681 47-435) above, with Y325F counted along it
Chain of CBL47–435 pY371 (human) (P22681 47-435): as the sequence (P22681 47-435) above

Row | Km (UbcH5B~Ub) of CBL47–435 pY371 autoubiquitination, Michaelis-Menten, 22°C [1] [μM] | Kd [2] [µM] | Kd [3] [µM] | Kd [4] [µM] | Kd [5] [µM] | Kd [6] [µM] | Kd [7] [µM] | Substance
1 | 6.5 | – | – | – | – | – | – | UbcH5B (from UniProt P62837 1-147) (enzyme)
2 | – | 17 | 11 | – | – | – | – | ZAP-70 peptide
3 | – | 311 | 28 | 70 | 138 | 250 | 244 | UbcH5B (from UniProt P62837 1-147) (enzyme; other documents disagree on this pair)
